# Assays:
# Assay in all cases: BLI
# CR9114 Fab (human) = molecular target: CR9114 Fab (human)
# PGT135 Fab (human) = molecular target: PGT135 Fab (human)
# [1] = molecular target: a panel of eight affinity-matured monoclonal antibodies against the same HIV-1 gp120 antigen but with different epitopes
# [2] = molecular target: four VH/VL combinations (the same germline light chain paired with three different heavy chains)
# [3] = molecular target: the same heavy chain paired with four different light chains
binder,measurement,setting,value
"recombinant Protein M TD, residues 74-468 (domain or fragment) SLSLNDGSYQSEIDLSGGANFREKFRNFANELSEAITNSPKGLDRPVPKTEISGLIKTGDNFITPSFKAGYYDHVASDGSLLSYYQSTEYFNNRVLMPILQTTNGTLMANNRGYDDVFRQVPSFSGWSNTKATTVSTSNNLTYDKWTYFAAKGSPLYDSYPNHFFEDVKTLAIDAKDISALKTTIDSEKPTYLIIRGLSGNGSQLNELQLPESVKKVSLYGDYTGVNVAKQIFANVVELEFYSTSKANSFGFNPLVLGSKTNVIYDLFASKPFTHIDLTQVTLQNSDNSAIDANKLKQAVGDIYNYRRFERQFQGYFAGGYIDKYLVKNVNTNKDSDDDLVYRSLKELNLHLEEAYREGDNTYYRVNENYYPGASIYENERASRDSEFQNEILKR",Kd,CR9114 Fab (human),1.9 nM
same,Kd,PGT135 Fab (human),3.7 nM
same,Kd,[1],0.7 to 3.8 nM
same,Kd,[2],2.1 to 4.8 nM
same,Kd,[3],1.8 to 2.3 nM

# Reference: article PMC3987992
